# Test results reported in patent publication US20240083986A1 (published 2024).
# Residue numbers refer to the chain shown, from its start. Names may count otherwise.
# T1: natural Bet v 1 (Betula verrucosa (Betula pendula), UniProt P15494 2-160)
# T1 construct: bought natural protein (Indoor Biotechnologies #NA-BV1-1); also called nBet v 1; Biotinylated Bet v 1
# T1 chain: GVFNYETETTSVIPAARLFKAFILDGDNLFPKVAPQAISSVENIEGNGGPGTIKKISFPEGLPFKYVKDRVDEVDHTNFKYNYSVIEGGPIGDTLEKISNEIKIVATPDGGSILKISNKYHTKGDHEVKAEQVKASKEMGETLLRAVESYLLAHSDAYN
# T2: natural Bet v 1 (Indoor, Cat #NA-BV1-1) (Betula verrucosa (European white birch, …, UniProt P15494 2-160))
# T2 sequence: T1 chain with L62F
# T3: Alder (Aln g 1, MyBiosource, Cat #MBS1041484) (Alder, UniProt P38948 2-160, limits assumed)
# T3 construct: Bought reagent
# T3 sequence (looked up): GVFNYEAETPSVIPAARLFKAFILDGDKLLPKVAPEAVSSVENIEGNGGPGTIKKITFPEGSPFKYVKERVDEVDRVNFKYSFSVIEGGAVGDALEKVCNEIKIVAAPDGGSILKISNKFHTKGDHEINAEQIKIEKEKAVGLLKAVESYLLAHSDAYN
# T4: Apple (Mal d 1, MyBiosource, Cat #MBS1224919) (Apple, UniProt P43211 2-159, limits assumed)
# T4 construct: Bought reagent
# T4 sequence (looked up): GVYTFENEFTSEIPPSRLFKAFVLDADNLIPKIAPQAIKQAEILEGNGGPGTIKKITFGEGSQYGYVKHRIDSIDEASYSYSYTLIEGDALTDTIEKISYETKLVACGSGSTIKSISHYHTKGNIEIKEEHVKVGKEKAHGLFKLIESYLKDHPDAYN
# T5: Celery (Api g 1, MyBiosource, Cat #MBS1171376) (Celery, UniProt P49372 1-154, limits assumed)
# T5 construct: Bought reagent
# T5 sequence (looked up): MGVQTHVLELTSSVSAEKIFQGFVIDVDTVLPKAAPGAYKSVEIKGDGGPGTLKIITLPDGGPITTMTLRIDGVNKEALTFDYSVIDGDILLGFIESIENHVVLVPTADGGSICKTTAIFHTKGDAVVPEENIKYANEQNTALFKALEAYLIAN
# T6: mutant Bet v 1-MMH (Betula verrucosa (European white birch, …))
# T6 construct: also called CHO produced recombinant Bet v 1 containing a S85A mutation with a C-terminal myc-myc hexahistidine tag
# T6 chain: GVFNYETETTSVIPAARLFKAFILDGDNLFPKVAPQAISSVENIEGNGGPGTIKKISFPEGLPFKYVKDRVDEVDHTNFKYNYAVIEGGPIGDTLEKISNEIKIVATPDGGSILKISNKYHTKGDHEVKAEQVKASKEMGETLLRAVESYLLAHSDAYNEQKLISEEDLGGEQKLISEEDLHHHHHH
# T7: mutant Bet v 1-MMH (Betula verrucosa (Betula pendula))
# T7 construct: CHO produced; also called recombinant mutant Bet v 1 with C-terminal myc-myc-hexahistidine tag
# T7 chain: T6 chain
# T8: European Hornbeam (Car b 1 isoform 1A & 1B, MyBiosource, Cat #MBS1200018) (European Hornbeam, UniProt P38949 2-160)
# T8 construct: Bought reagent
# T8 sequence (looked up): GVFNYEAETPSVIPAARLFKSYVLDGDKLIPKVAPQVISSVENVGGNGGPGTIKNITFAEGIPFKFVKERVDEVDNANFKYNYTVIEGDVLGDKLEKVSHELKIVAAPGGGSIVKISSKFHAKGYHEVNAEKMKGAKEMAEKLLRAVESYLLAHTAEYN
# B1: H4H16987P (antibody, human IgG4 S228P, kappa, V domains shown)
# VH: EVQLVESGGGLVQPGGSLRLSCAASGFTVSSNSMSWVRQAPGEGLEWVSVIFSGGITYYSDSVKGRFTISRHNSKNTLYLQMNSLRTEDTAVYYCARHSNWNFDAFDIWGQGTMVTVSS
# VL: DIQMTQSPSSLSASVGDRVTITCRASQSFDTYLNWYQQKPGKAPNLLIYATSSLQSGVPSRFSGSGSGTDFTLTISSLQPEDFGTYYCQQSYSIPYTFGQGTKLEIKR
# notes: fully human, human IgG4 Fc (H4H prefix); also called MAB4
# B2: H4H17082P2 (antibody, human IgG4 S228P, kappa, V domains shown)
# VH: QVQLVQSGAEVKKPGASVKVSCKASGYTFISYNIFWVRQATGQGLDWMGWMNPFRNNAGYAQKFQGRVTVTWDTSISTAYMELSSLSSEDTAIYYCAREHGSSWGFFDYWGQGTLVTVSS
# VL: not shown
# notes: human IgG4; also called REGN5715; MAB2
# B3: H4H17082P2 (antibody, human IgG4 S228P, kappa, V domains shown)
# VH: B2 VH
# VL: not shown
# notes: fully human, human IgG4 Fc (H4H prefix); also called MAB2; REGN5715
# B4: H4H16943P (antibody, human IgG4, V domains shown)
# VH: EVQLVESGGGLVQPGGSLRLSCTASGFMSSMYWMSWVRQAPGKGLEWVSNIKQDGTEKNYVESVKGRFTISRDNAKNSLYLQINSLRGEDTAVYYCARDLYSSSSGYYYYGLDVWGQGTTVTVSS
# VL: DIVMTQSPLSLPVTPGEPASISCRSSQSLLHSNKYNYLDWYLQKPGQSPQLLIYLSSNRASGVPDRFSGSGSGTEFTLKISRVEAEDVGIYYCMQALHTPLTFGGGTKVEIK
# B5: H4H16943P (antibody, human IgG4, V domains shown)
# VH: B4 VH
# VL: B4 VL
# notes: human IgG4 Fc (H4H prefix)
# B6: H4H17001P (antibody, human IgG4, V domains shown)
# VH: QVQLVESGGGLVKPGGSLRLSCAASGFTFSDYYMNWIRQAPGKGLEWISLISSSGSAIYYSDSVKGRFTISRDNARKSLYLQVNSLRAEDTAVYYCARDRGEWALGAYYYGLDVWGQGTTVTVSS
# VL: DIVMTQSPLSLPVTPGEPASISCRSSQSLLHSDGYNYLDWYLQKSGQSPQLLIYLGSNRASGVPDRFSGSGSGTDFTLKISRMEAEDVGVYYCMQALQTPYTFGQGTKLEIK
# B7: H4H17001P (antibody, human IgG4, V domains shown)
# VH: B6 VH
# VL: B6 VL
# notes: human IgG4 Fc (H4H prefix)
# Tests used:
# natural Bet v 1 [1] = biological target: T1, natural Bet v 1; experiment: blocking ELISA, biotin nBet v 1 to captured IgE, donor 22627-MN
# Method: (§1) Antibodies were tested either alone or in polyclonal mixes. […] Plates were then blocked with 0.5% BSA (w/v) for 1 hour at room temperature (RT). Plasma from allergic donors was diluted and total IgE was then captured over the receptor-coated surface. A constant amount of 0.1 nM of biotin labeled natural Bet v 1 (Indoor Biotechnologies, #NA-BV1-1) was pre-mixed with anti-Bet v 1 antibodies, at a single concentration of 1 μg/mL or in serial dilutions starting from either 10 μg/mL or 1 μg/mL of each antibody and incubated for 1 hour at RT to allow Bet v 1-antibody interaction to reach equilibrium. The antibody-Bet v 1 mixture was then added to the IgE-coated plate for 1 hour. Plates were subsequently washed and the amount of natural Bet v 1 bound to plate was detected using streptavidin conjugated to horseradish peroxidase (Thermo Scientific, #N200/QJ223091) at a 1:10,000 dilution and incubated for 1 hour at RT. Plates were then washed with PBS-T in between each step of the ELISA protocol described above. […] The reaction was stopped using 2 N sulfuric acid (H₂SO₄; VWR, #BDH3500-1). The absorbance was subsequently measured on a spectrophotometer (Victor, Perkin Elmer) at 450 nm. The percent blocking was calculated using the highest antibody concentration used in each assay as described below.
# natural Bet v 1 [2] = biological target: T1, natural Bet v 1; experiment: blocking ELISA, biotin nBet v 1 to captured IgE, donor 23035-BL
# Method: as §1
# natural Bet v 1 [3] = biological target: T1, natural Bet v 1; experiment: blocking ELISA, biotin nBet v 1 to captured IgE, donor 23658-MD
# Method: as §1
# natural Bet v 1 [4] = biological target: T1, natural Bet v 1; experiment: blocking ELISA, biotin nBet v 1 to captured IgE, donor 23939-MH
# Method: as §1
# natural Bet v 1 [5] = biological target: T1, natural Bet v 1; experiment: blocking ELISA, biotin nBet v 1 to captured IgE, donor 25299-RJ
# Method: as §1
# natural Bet v 1 [6] = biological target: T1, natural Bet v 1; experiment: blocking ELISA, biotin nBet v 1 to captured IgE, donor 25340-RR
# Method: as §1
# natural Bet v 1 [7] = biological target: T1, natural Bet v 1; experiment: blocking ELISA, biotin nBet v 1 to captured IgE, donor 25414-CW
# Method: as §1
# natural Bet v 1 [8] = biological target: T1, natural Bet v 1; experiment: blocking ELISA, biotin nBet v 1 to captured IgE, donor 25609-MS
# Method: as §1
# natural Bet v 1 [9] = biological target: T1, natural Bet v 1; experiment: blocking ELISA, biotin nBet v 1 to captured IgE, donor 26532-CC
# Method: as §1
# natural Bet v 1 [10] = biological target: T1, natural Bet v 1; experiment: blocking ELISA, biotin nBet v 1 to captured IgE, donor 29718-MW
# Method: as §1
# natural Bet v 1 [11] = biological target: T1, natural Bet v 1; experiment: dose-response blocking ELISA, biotin nBet v 1 to captured IgE, donor 23939-MH
# Method: as §1
# natural Bet v 1 [12] = biological target: T1, natural Bet v 1; experiment: dose-response blocking ELISA, biotin nBet v 1 to captured IgE, donor 25340-RR
# Method: as §1
# natural Bet v 1 [13] = biological target: T1, natural Bet v 1; experiment: dose-response blocking ELISA, biotin nBet v 1 to captured IgE, donor 25609-MS
# Method: as §1
# [14] = biological target: T2, natural Bet v 1 (Indoor, Cat #NA-BV1-1); experiment: cell-based or functional assay
# [15] = biological target: T2, natural Bet v 1 (Indoor, Cat #NA-BV1-1); experiment: SPR Biacore, mAb captured on anti-hFc, 25C;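 note: rate constants from sensorgrams fitted to a 1:1 model with mass transport limitation, KD and t½ derived from kinetic constants, run in HBS-ET buffer at pH 7.4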
# Method: Equilibrium dissociation constants (KD) for natural Bet v 1 binding to purified anti-Bet v 1 monoclonal antibodies were determined using a real-time surface plasmon resonance biosensor (SPR-Biacore) on a Biacore 4000 instrument. All binding studies were performed in 10 mM HEPES, 150 mM NaCl, 3 mM EDTA, and 0.05% v/v surfactant Tween-20, pH 7.4 (HBS-ET) running buffer at 25° C. and 37° C. […] Association (kₐ) and dissociation (kd) rate constants were determined by fitting the real-time binding sensorgrams to a 1:1 binding model with mass transport limitation using Scrubber 2.0c curve-fitting software. Binding dissociation equilibrium constants (KD) and dissociative half-lives (t½) were calculated from the kinetic rate constants as:
# [16] = biological target: T2, natural Bet v 1 (Indoor, Cat #NA-BV1-1); experiment: SPR Biacore, mAb captured on anti-hFc, 37C;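 note: purified anti-Bet v 1 monoclonal antibodies, HBS-ET running buffer pH 7.4, rate constants from 1:1 model fit with mass transport limitation, KD and t½ calculated from kinetic constants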
# [17] = biological target: T3, Alder (Aln g 1, MyBiosource, Cat …); experiment: SPR Biacore, 25C;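 note: binding of related allergens to purified monoclonal anti-Bet v 1 antibodies by surface plasmon resonance in HEPES-buffered saline pH 7.4, kinetics fitted to a 1:1 model with mass transport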
# Method: (§2) Equilibrium dissociation constants (KD) for different related allergens binding to purified anti-Bet v 1 monoclonal antibodies were determined using a real-time surface plasmon resonance biosensor (SPR-Biacore) on a Biacore 4000 instrument. All binding studies were performed in 10 mM HEPES, 150 mM NaCl, 3 mM EDTA, and 0.05% v/v surfactant Tween-20, pH 7.4 (HBS-ET) running buffer at 25° C. […] Binding studies were performed on the following related allergens: Alder (Aln g 1, MyBiosource, Cat #MBS1041484), Apple (Mal d 1, MyBiosource, Cat #MBS1224919), Carrot (Dau c 1.2, MyBiosource, Cat #MBS1212920), Celery (Api g 1, MyBiosource, Cat #MBS1171376), Celery (Api g 2, MyBiosource, Cat #MBS1047880), European Hornbeam (Car b 1 isoform 1A & 1B, MyBiosource, Cat #MBS1200018), European Hornbeam (Car b 1 isoform 2, MyBiosource, Cat #MBS1043940), Hazel (Cor A 1, MyBiosource, Cat #MBS5304600), and White Oak (Que a 1, MyBiosource, Cat #MBS1258822). […] Association (kₐ) and dissociation (kd) rate constants were determined by fitting the real-time binding sensorgrams to a 1:1 binding model with mass transport limitation using Scrubber 2.0c curve-fitting software. Binding dissociation equilibrium constants (KD) and dissociative half-lives (t½) were calculated from the kinetic rate constants as:
# [18] = biological target: T4, Apple (Mal d 1, MyBiosource, Cat …); experiment: SPR Biacore, 25C;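 note: binding of related allergens to purified monoclonal anti-Bet v 1 antibodies by surface plasmon resonance in HEPES-buffered saline pH 7.4, kinetics fitted to a 1:1 model with mass transport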
# Method: as §2
# [19] = biological target: T5, Celery (Api g 1, MyBiosource, Cat …); experiment: SPR Biacore, 25C;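 note: binding of related allergens to purified monoclonal anti-Bet v 1 antibodies by surface plasmon resonance in HEPES-buffered saline pH 7.4, kinetics fitted to a 1:1 model with mass transport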
# Method: as §2
# mutant Bet v 1-MMH [20] = biological target: T6, mutant Bet v 1-MMH; experiment: BLI Octet HTX, mutant Bet v 1-MMH captured on anti-Penta-His tips, 25C
# Method: (§3) Binding competition within a panel of anti-Bet v 1 monoclonal antibodies was determined using a real time, label-free bio-layer interferometry assay on the Octet HTX biosensor platform (Pall ForteBio Corp.). The entire experiment was performed at 25° C. in 10 mM HEPES, 150 mM NaCl, 3 mM EDTA, and 0.05% v/v Surfactant Tween-20, 1 mg/mL BSA, pH 7.4 (HBS-EBT) buffer with the plate shaking at the speed of 1000 rpm. […] The biosensor tips were washed in HBS-EBT buffer between every step of the experiment. The real-time binding response was monitored during the entire course of the experiment and the binding response at the end of every step was recorded.
# mutant Bet v 1-MMH [21] = biological target: T7, mutant Bet v 1-MMH; experiment: BLI Octet, mutant Bet v 1-MMH captured on anti-Penta-His tips
# Method: as §3
# [22] = biological target: T8, European Hornbeam (Car b 1 isoform 1A & …); experiment: SPR Biacore, 25C;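 note: binding of related allergens to purified monoclonal anti-Bet v 1 antibodies by surface plasmon resonance in HEPES-buffered saline pH 7.4, kinetics fitted to a 1:1 model with mass transport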
# Method: as §2
binder,measurement,setting,value
B1,Percent Blocking (at 1 µg/mL each antibody),natural Bet v 1 [1],12%
same,Percent Blocking (at 1 µg/mL each antibody),natural Bet v 1 [2],-46%
same,Percent Blocking (at 1 µg/mL each antibody),natural Bet v 1 [3],27%
same,Percent Blocking (at 1 µg/mL each antibody),natural Bet v 1 [4],16%
same,Percent Blocking (at 1 µg/mL each antibody),natural Bet v 1 [5],9%
same,Percent Blocking (at 1 µg/mL each antibody),natural Bet v 1 [6],15%
same,Percent Blocking (at 1 µg/mL each antibody),natural Bet v 1 [7],-4%
same,Percent Blocking (at 1 µg/mL each antibody),natural Bet v 1 [8],16%
same,Percent Blocking (at 1 µg/mL each antibody),natural Bet v 1 [9],4%
same,Percent Blocking (at 1 µg/mL each antibody),natural Bet v 1 [10],13%
same,Percent Blocking (at 1 µg/mL each antibody),natural Bet v 1 [11],19.6%
same,Percent Blocking (at 1 µg/mL each antibody),natural Bet v 1 [12],11.1%
same,Percent Blocking (at 1 µg/mL each antibody),natural Bet v 1 [13],21.6%
B2,"blockade of basophil activation (phospho-Erk MFI in basophils of PBMCs of birch allergic donors, 100 pM natural Bet v 1)",[14],70%
same,100 nM natural Bet v 1 Bound (RU),[15],72 RU
same,Kd,[15],1.09 nM
same,100 nM natural Bet v 1 Bound (RU),[16],83 RU
same,Kd,[16],2.43 nM
same,t½,[16],6.3 min
B3,Percent Blocking (at 1 µg/mL each antibody),natural Bet v 1 [2],52%
same,Percent Blocking (at 1 µg/mL each antibody),natural Bet v 1 [4],79%
same,Percent Blocking (at 1 µg/mL each antibody),natural Bet v 1 [5],66%
same,Percent Blocking (at 1 µg/mL each antibody),natural Bet v 1 [6],81%
same,Percent Blocking (at 1 µg/mL each antibody),natural Bet v 1 [7],38%
same,Percent Blocking (at 1 µg/mL each antibody),natural Bet v 1 [8],51%
same,Percent Blocking (at 1 µg/mL each antibody),natural Bet v 1 [9],74%
same,Percent Blocking (at 1 µg/mL each antibody),natural Bet v 1 [10],49%
same,Percent Blocking (at 1 µg/mL each antibody),natural Bet v 1 [11],82.9%
same,Percent Blocking (at 1 µg/mL each antibody),natural Bet v 1 [12],82.7%
same,Percent Blocking (at 1 µg/mL each antibody),natural Bet v 1 [13],56.4%
B4,binding result,[17],no binding (tested: 100 nM)
same,binding result,[18],no binding (tested: 100 nM)
same,binding result,[19],no binding (tested: 100 nM)
same,100 nM natural Bet v 1 Bound (RU),[15],71 RU
same,Kd,[15],1.4 nM
same,koff,[15],0.00023 s⁻¹
same,kon,[15],164000 M⁻¹ s⁻¹
same,t½,[15],50 min
same,100 nM natural Bet v 1 Bound (RU),[16],88 RU
same,Kd,[16],4.89 nM
same,koff,[16],0.00127 s⁻¹
same,kon,[16],260000 M⁻¹ s⁻¹
same,t½,[16],9.1 min
same,binding result,mutant Bet v 1-MMH [20],no binding (tested: 50 µg/mL)
B5,binding result,mutant Bet v 1-MMH [21],no binding (tested: 50 µg/mL)
B6,binding result,[18],no binding (tested: 100 nM)
same,binding result,[19],no binding (tested: 100 nM)
same,binding result,[22],no binding (tested: 100 nM)
same,100 nM natural Bet v 1 Bound (RU),[15],71 RU
same,Kd,[15],1 nM
same,koff,[15],0.000329 s⁻¹
same,kon,[15],329000 M⁻¹ s⁻¹
same,t½,[15],35 min
same,100 nM natural Bet v 1 Bound (RU),[16],87 RU
same,Kd,[16],2.52 nM
same,koff,[16],0.00122 s⁻¹
same,kon,[16],485000 M⁻¹ s⁻¹
same,t½,[16],9.5 min
same,binding result,mutant Bet v 1-MMH [20],no binding (tested: 50 µg/mL)
B7,binding result,mutant Bet v 1-MMH [21],no binding (tested: 50 µg/mL)
